From the supplement of paper PMC10724198

How the values were obtained:
Saccharomyces cerevisiae [1] = assay: protein stability index of tFT-peptide fusion in wild type (PSI (0-1 scale)); higher = more stable (slower turnover); details: genetic background: wild type
Saccharomyces cerevisiae [2] = assay: protein stability index of tFT-peptide fusion in deletion strain of DOA10 (PSI (0-1 scale)); higher = more stable (slower turnover)
Protocol: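 MPS profiling in S. cerevisiae of two library types built from selected 12-aa C-degron peptides (IN1, IN2, LN1, LN3, VN2, R1-R5, W1-W3, Atg1 and Rpa12 C-termini): saturation mutagenesis libraries and C-terminal +1 capping libraries (13 aa). Each peptide is fused to the C-terminus of a sfGFP-mCherry timer, after a GGGS linker. Cells are FACS-sorted into 8 mCherry/sfGFP bins and sequenced. PSI runs from 0 (unstable) to 1 (stable), measured once in wild type and in the das1Δ or doa10Δ background.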
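For protein stability index of tFT-peptide fusion in deletion strain of DOA10 in this document: PSI per variant is the weighted mean of its sequencing read distribution over the sorted stability bins, counting only variants with over 10 reads summed across bins.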
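For protein stability index of tFT-peptide fusion in wild type in this document: PSI derived as read-weighted mean over the 8 sorting bins, only variants exceeding 10 total reads kept, mCherry placed adjacent to the peptide and sfGFP distal.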

Row | Sequence | protein stability index (Saccharomyces cerevisiae [1]) | protein stability index (Saccharomyces cerevisiae [2])
1 | GLYMCSVGCWFI | 0.44 | 0.585
2 | RSLRVLDPLYFR | 0.556 | 0.721
3 | GLYMPSVGCWFR | 0.196 | 0.683
4 | FLVSLPILLFFR | 0.0831 | 0.539
5 | CLVSLPILLFGR | 0.492 | 0.523
6 | AETLPMCPLLLR | 0.55 | 0.697
7 | RDLRVLLPLYFR | 0.295 | 0.675
8 | GLYMCEVGCWFR | 0.485 | 0.642
9 | GLYMCSVGCWFM | 0.543 | 0.586
10 | RVTRPDAIYFRI | 0.34 | 0.706
11 | RVTRHDAIYFRI | 0.517 | 0.689
12 | CLVSLRILLFFR | 0.152 | 0.282
13 | RSNRVLLPLYFR | 0.334 | 0.701
14 | AITLPMCPLLLA | 0.269 | 0.313
15 | GLYMCSVPCWFR | 0.646 | 0.682
16 | AITLPMMPLLLR | 0.187 | 0.639
17 | RVTRLDAYYFRI | 0.609 | 0.714
18 | CFVSLPILLFFR | 0.0595 | 0.579
19 | AITLAMCPLLLR | 0.418 | 0.65

Row | Sequence | protein stability index (Saccharomyces cerevisiae [1]) | protein stability index (Saccharomyces cerevisiae [2])
20 | RVVRLDAIYFRI | 0.399 | 0.65
21 | CLVSLPILLFFG | 0.447 | 0.52
22 | GLYMCSVWCWFR | 0.305 | 0.399
23 | RVTRLDLIYFRI | 0.224 | 0.654
24 | RVTRLDAIYFRIR | 0.589 | 0.717
25 | GWYMCSVGCWFR | 0.168 | 0.601
26 | CLVSLPITLFFR | 0.104 | 0.65
27 | AITLPMCPLNLR | 0.645 | 0.673
28 | LLYMCSVGCWFR | 0.348 | 0.571
29 | AITLPMCPLLLRW | 0.0872 | 0.621
30 | RSLRVLLPLYDR | 0.652 | 0.708
31 | CLVPLPILLFFR | 0.0703 | 0.57
32 | CLLSLPILLFFR | 0.0527 | 0.571
33 | CLVSLPILLTFR | 0.0802 | 0.627
34 | RPTRLDAIYFRI | 0.504 | 0.666
35 | RSLRVLLPLYVR | 0.202 | 0.35
36 | RSLRVLLPLWFR | 0.459 | 0.67
37 | CSVSLPILLFFR | 0.0485 | 0.617
38 | CLVSLPILLFFRY | 0.0612 | 0.483

Row | Sequence | protein stability index (Saccharomyces cerevisiae [1]) | protein stability index (Saccharomyces cerevisiae [2])
39 | RVTRLDAICFRI | 0.656 | 0.713
40 | RSQRVLLPLYFR | 0.308 | 0.705
41 | MLVSLPILLFFR | 0.089 | 0.565
42 | RVTRLDAIYFRE | 0.676 | 0.725
43 | RVTRLDAIYFRN | 0.6 | 0.676
44 | RSLRVLLPLYFRN | 0.204 | 0.5
45 | KVTRLDAIYFRI | 0.251 | 0.67
46 | RVTRLNAIYFRI | 0.229 | 0.496
47 | ALVSLPILLFFR | 0.0758 | 0.653
48 | CVVSLPILLFFR | 0.0506 | 0.589
49 | RVTRLDAIYFTI | 0.548 | 0.64
50 | AITLKMCPLLLR | 0.296 | 0.624
51 | CLVSLAILLFFR | 0.248 | 0.351
52 | CLVSLPILLFFRT | 0.0656 | 0.516
53 | GLYMCGVGCWFR | 0.335 | 0.682
54 | GCYMCSVGCWFR | 0.326 | 0.667
55 | AITLPMCPLLLE | 0.618 | 0.652
56 | AITLPMSPLLLR | 0.276 | 0.673
57 | GLYMCSVGCWFD | 0.471 | 0.518
